From patent publication US20250236644A1, “De Novo Designed Stimulus-responsive Two-state Hinge Proteins” (University of Washington, priority 2024, published 2025)
Changes are numbered by the printed parent chain. In names and notes the source's numbering stands. Values belong to the molecule of their own block, whether it stands above or below them.

Assays:
[1] = test system: TAMRA-cs074B; experiment: Fluorescence polarization (FP) titration and kinetics, hinge vs TAMRA-cs074B; assay type: binding; conditions: 1 nM peptide cs074B, varying hinge; FIG. 10
Experimental: (§1) All FP measurements were performed at 25° C. in 96-well plates (Corning 3686) using a Synergy Neo2™ plate reader and a 530/590 nm filter cube. The buffer for all FP measurements was 20 mM Tris-HCl, 100 mM NaCl, 0.05% v/v TWEEN20 at pH 8. Titrations were carried out in 96-well format, with 4 replicates per plate and 24 data points per titration (23 steps of two-fold serial dilution of hinges in the presence of TAMRA-labeled peptide at a constant concentration between 0.1 nM and 1 nM) with a final sample volume of 80 μl per well. Titration plates were incubated overnight at room temperature before measuring to ensure complete equilibration. The polarization signal S (as calculated by the Neo2™ software) was fitted to the equation
(§2) where fAB is the fraction of peptide that is bound, Atot is the absolute hinge concentration, Btot is the absolute peptide concentration, S0 is the baseline polarization of free peptide, and S1 is the change in polarization upon complex formation.
(§3) Fitting was performed using the scipy.optimize.curve_fit python function (53). Uncertainties for KD values are standard deviation errors calculated from the covariance matrix of the fits. In cases where the fitted KD was lower than the concentration of the labeled peptide Btot, we report the KD as KD<Btot.
(§4) For FP kinetics experiments a 2× peptide solution and 8 different 2× hinge solutions at different concentrations were prepared separately. 40 μl of each hinge solution were mixed with 40 μl peptide solution using a multichannel pipet and the measurement was started immediately after mixing. Polarization signals S at each concentration were fitted individually to the equation
(§5) where S0 is the amplitude, S1 is the polarization at equilibrium, kapp is the apparent rate constant, t is the time after start of the measurement, and t0 is the dead time between mixing and start of the measurement. For each hinge-peptide pair, the apparent rate constants for 8 different concentrations are fitted to the equation
(§6) where koff and kon are observed off- and on rates and Atot is the absolute hinge concentration.

[2] = test system: TAMRA-cs221B; experiment: FP titration and kinetics, hinge vs TAMRA-cs221B; assay type: binding; conditions: for binding in FP titration: 1 nM peptide cs221B, varying hinge, FIG. 10; for peptide binding: FP; for kon: Effector TAMRA-cs221B, method FP
Experimental: as §1, §2, §3, §4, §5, §6

[3] = test system: TAMRA-cs201B; experiment: FP titration and kinetics, hinge vs TAMRA-cs201B; assay type: binding; conditions: for binding in FP titration: 1 nM peptide cs201B, varying hinge, FIG. 10
Experimental: as §1, §2, §3, §4, §5, §6

[4] = test system: original peptides fused to superfolder green fluorescent protein (sfGFP); experiment: SEC binding experiments with original peptides fused to sfGFP; conditions: FIG. 17C
Experimental: Individual hinge and sfGFP-fused peptides or 3hb were diluted in 20 mM Tris pH 8, 100 mM NaCl and mixed at approximately 1:1 concentrations. 0.5-1 mL of the resulting samples were injected onto a Superdex™ 200 Increase 10/300 GL columns and the absorbance at 230 nm was used as a readout for binding. For sfGFP-fused peptides, 473 nm was also used as readout. Mixtures were at a total concentration of 2. μM or higher.

[5] = test system: TAMRA-js007B; experiment: FP titration and kinetics, hinge vs TAMRA-js007B; assay type: binding
Experimental: as §1, §2
as §3, with “KD<Btot. […]” for “KD<Btot.”

Sequence of TAMRA-cs201B (as listed by the source): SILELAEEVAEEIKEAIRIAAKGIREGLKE
Sequence of TAMRA-cs221B (as listed by the source): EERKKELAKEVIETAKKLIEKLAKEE
Sequence of TAMRA-cs074B (as listed by the source): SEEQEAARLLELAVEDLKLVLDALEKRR
Sequence of TAMRA-js007B (as listed by the source): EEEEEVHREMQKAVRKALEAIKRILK

binding in FP titration [1]: most strongly | binding in FP titration [2]: weaker than the new target | binding in FP titration [3]: still binds
B1: csw20: cs201-derived hinge redesigned to bind peptide cs074B, SEQ ID NO:18 (protein)
chain: MSGMEEVKELVEKAEELAKEAEELIKKAKKTGNPELLKEALRKLKEAVELAKEAVELDPEHEEAIELLARLAEKLLEVAKLLIELAKKTGNPELLKEALRALKEAREALRLAAEHAPEDAKLLARLAARLAELALLIAKILIELAKKTGNPELLLKALKVLTLAVEAVEAALEADPRLKEAVRVAKELAEVLKELAKLAKELAKKTGNEELKEAAKEAEEVAKRAEELAREAEGSGSHHWGSTHHHHHH

SEC binding experiment with sfGFP-fused original peptide [4]: higher-order peaks
B2: cs230: designed hinge protein, SEQ ID NO:12 (protein)
chain: MSGTKEEKERIERIEKEVRSPDPENILEAVRKALELFRENPSEEAKELLKRAIEAALRSEDERAILEALRAALEAYRQGAGDREGLLEAIRVAIRRAAESEDERAILEAVRAARILLEAERTEEAKELLRVAIERAKKSPDPEAQREAKRAEEELRKEDGSGSHHWGSTHHHHHH

peptide binding ([2]; oxidizing conditions (disulfide formed)): only weak residual binding | peptide binding ([2]; upon addition of reducing agent DTT): fully restored
B3: cs221_lockedX: cs221 variant with disulfide that locks state X, SEQ ID NO:19 (protein)
chain: MSGEMKEEIRRLAEELRERTKDEEVRELAREAARLAEESDDEEVKEVVKKALEAALKSKDEEVIRLLLLAAVCAAAAARSGSPEEKLEIAKKALELAMKSKDEEVIRLALLAAVLACRSDDEEVLKKVKEALEKAMESKDVEEIRERLREAVEVARAGSGSHHWGSTHHHHHH

B4: cs221: designed hinge protein, SEQ ID NO:10 (protein)
chain: B3 chain with C73L, C117A
kon [2]: 3400 M⁻¹ s⁻¹

B5: cs221_lockedY: cs221 variant with disulfide that locks state Y, SEQ ID NO:20 (protein)
chain: B3 chain with L69C, C73L, L110C, C117A
kon [2]: 790000 M⁻¹ s⁻¹

B6: cs221_V111L_A111T: state Y-stabilizing double mutant of hinge cs221 (protein)
chain: B3 chain with C73L, V114L, C117T
kon [2]: 76200 M⁻¹ s⁻¹

B7: cs221_A73E: hinge cs221 with point mutation A73E (protein)
chain: B3 chain with C73L, A76E, C117A
kon [2]: 1900 M⁻¹ s⁻¹

B8: cs221_L66T: hinge cs221 with point mutation L66T (protein)
chain: B3 chain with L69T, C73L, C117A
kon [2]: 2700 M⁻¹ s⁻¹

B9: cs221_A114T: hinge cs221 with point mutation A114T (protein)
chain: B3 chain with C73L, C117T
kon [2]: 27700 M⁻¹ s⁻¹

B10: cs221_V111L: hinge cs221 with point mutation V111L (protein)
chain: B3 chain with C73L, V114L, C117A
kon [2]: 24300 M⁻¹ s⁻¹

B11: js007: designed hinge protein, SEQ ID NO:11 (protein)
chain: MSGSEEVNERVKQLAEKAKEATDKEEVIEIVKELAELAKQSTDPNLVAEVVRALTEVAKTSTDTELIQEIVKVLLELARRLTDPQLLLEVLKSIAELLKELAEKTGNETAKLAALVAQIAAEVVEMALRAEKTHPGSEIVKLAVELVQKVAEIVLIAAQLMLDKPNSDEVRKVLKEVEKVAREALKALREAKRHPDSQKARDEIKEASQKAEEVKERIERAQEGSGSHHWGSTHHHHHH
kon ([5]; Effector TAMRA-js007B, method FP): 78000 M⁻¹ s⁻¹

B12: cs201: designed hinge protein, SEQ ID NO:7 (protein)
chain: MSGDEEVQEAVERAEELREEAEELIKKARKTGDPELLRKALEALKEAVRAVREAIKRNPDNEEAIKTALRLARELRKVAKELIERARKTGDAELLKKALEAARVAVEAVRLAAEYNKENAEKMAELLVELAELAREVADVLIELAEKTGDPELLKKALEVLEEAVEAVRLAIEYDPDHEEAVETAKRLAEELRKVAELLEERAKETGDPELQELAKRAKEVADRARELAKKSNGSGSHHWGSTHHHHHH
kon ([3]; Effector TAMRA-cs201B, method FP): 6700 M⁻¹ s⁻¹

binding in FP titration [1]: not binding | binding in FP titration ([5]; 1 nM peptide js007B, varying hinge, FIG. 10): not binding | binding in FP titration [2]: specifically binds | binding in FP titration [3]: not binding
B13: csw13: cs201-derived hinge redesigned to bind peptide cs221B, SEQ ID NO:17 (protein)
chain: MSGNEEVKKLVEEAKKYLKEAEEYIKKAKKTGNEELLEKALKLLEKALELVKKAIELDPNNKEAIEQAVEIARALNEVAELLIEEAKKTGNEELLEKALEALEAANEALKLAIENNENDKELLAEIAVELAEVGVLLAEVLIEEAKKTGDPELLKLALEVLEAAVEALELALKLDPNNEEAVELAEEAAKLLEEVAKELKEEAKKTGDPELEKLAKEAEELAKRAKELAERQRGSGSHHWGSTHHHHHH
